# In patent publication US8598081B2, “Specific delivery of agrochemicals” (priority 2010, dated 2013):
# How the values were obtained:
# gum arabic = experiment: VHH binding to gum arabic in ELISA; design: species or system acacia tree
# Experimental: Titration of VHH antibody fragments was performed on ELISA plates (Maxisorp, Nunc) coated with 100 μl per well 100 μg/ml gum arabic in 50 mM carbonate pH 9.6. Plates were coated at 4° C. overnight and coating was continued at room temperature for 1 hour on the next day. Plates were washed three times with PBS/0.05%-TWEEN®-20 and blocked with 5% skimmed milk in PBS for 1 hour. Four-fold serial dilutions of purified VHH antibody fragments were prepared in 1% MPBS/0.05%-TWEEN®-20 in polypropylene 96-well plates. Antibody concentrations ranged from 3 μg/ml to 12 ng/ml. Antibody dilutions were transferred to the gum arabic-coated plates and VHH antibody fragments were allowed to bind for 1 hour at room temperature. Bound VHH were detected with sequential incubations with monoclonal mouse anti-histidine antibodies (Abd Serotec) and rabbit anti-mouse IgG whole molecule antibodies conjugated with alkaline phosphatase (RaM/AP) (Sigma) in 1% MPBS/0.05%-TWEEN®-20. Unbound antibodies were removed by washing three times with PBS/0.05%-TWEEN®-20 after each antibody incubation. The plates were washed an additional two times with PBS and 100 μl pNPP disodium hexahydrate substrate (Sigma) was added to each well. The absorbance at 405 nm was measured and plotted as function of antibody concentration (see Table 1).
# surface of grass leaves = experiment: VHH binding to non-fixed leaf discs, grass; details: 5 μg/ml, detection with anti-histidine Alexa-488
# Experimental: (§1) VHH binding to non-fixed leaf discs of potato (variety Desiree), black nightshade, grass, wheat or azalea was investigated. For comparison, binding of CBM3a to non-fixed leaf discs of potato (variety Desiree) was analyzed in parallel. Leaf discs were prepared by punching a fresh potato leaf with a 5 mm belt hole puncher tool. Leaf discs were put immediately in wells of a 96-well plate containing 200 μl per well 5% MPBS or PBS, and incubated for 30 minutes. Leaf discs were transferred to solutions containing 5 μg/ml VHH antibody fragment, respectively, 5 μg/ml CBM3a in 2% MPBS or PBS and incubated for 60-90 minutes. Unbound VHH or CBM3a proteins were removed by washing three times with 2% MPBS or PBS. Bound VHH or CBM3a proteins were detected with incubation with monoclonal mouse anti-histidine antibodies directly conjugated with Alexa-488 fluorescent dye (Abd Serotec) in 1% MPBS for 1 hour. Unbound antibodies were removed by washing three times with PBS. Leaf discs were put on glass slides, covered with cover slips, and analyzed by microscopy or on a macrozoom microscope system (Nikon) or a SP5 confocal microscope system (Leica).
# [1] = test system: leaf surface of potato leaves; experiment: VHH binding to non-fixed leaf discs, potato; design: species or system potato (variety Desiree); details: 5 μg/ml, detection with anti-histidine Alexa-488
# Experimental: as §1
# [2] = ELISA-like assay, microcapsules with monovalent or bivalent VHH, unrelated antigen; type: binding; design: unit not given beside the values; details: Uvitex microcapsules
# Excerpt: Bivalent VHH constructs were produced in bacteria by cloning two VHH sequences in tandem into the pASF22 vector, creating a fusion of two VHH with a 9 glycine-serine linker (GGGGSGGGS (SEQ ID NO:50)) in between the two VHH. pASF22 is an in-house produced pMES derivative. The tags that were used were C-terminal c-Myc (EQKLISEEDLN (SEQ ID NO:51)) and hexahistidine (HHHHHH (SEQ ID NO:52)). A triple alanine linker (AAA) was placed in between the C-terminal end of the VHH and the c-Myc tag and a glycine-alanine-alanine (GAA) linker was used in between the C-terminal end of the c-Myc tag and the hexahistidine tag. The complete sequence C-terminal of the bivalent VHH that was used: AAA-EQKLISEEDLN-GAA-HHHHHH (SEQ ID NO:53). Fresh overnight cultures were produced by starting from colony streaks and inoculation of 2×TY media supplemented with 2% glucose and 100 μg/ml ampicillin. The overnight cultures were used to inoculate fresh cultures 1:100 in 2×TY media with 0.1% glucose and 100 μg/ml ampicillin. After growing at 37° C. in a shaking incubator for 3 hours, IPTG was added to a 1 mM final concentration and recombinant bivalent VHH were produced during an additional incubation for 4 hours. Cells were spun down and resuspended in 1/50th of the original culture volume of PBS and incubated with head-over-head rotation at 4° C. for 30 minutes. Spheroplasts were spun down by centrifugation at 3,000 g and 4° C. for 20 minutes. Supernatants were transferred to fresh tubes and centrifuged again at 3,000 g and 4° C. for 20 minutes. The supernatant was collected and sodium chloride concentration was adjusted to 500 mM and imidazole concentration to 20 mM. Hexahistidine-tagged bivalent VHH were purified from the extracts using HisTrap FF Crude 5 ml IMAC columns (GE Lifesciences) and HiLoad 16/60 Superdex 75 prep grade gel filtration column (GE Lifesciences) on an AKTAxpress system (GE Lifesciences) following standard procedures.
# Next, it was investigated if binding of microcapsules to surfaces could be improved by using targeting agents comprising multivalent VHH. A series of parallel couplings was performed with equal amounts of monovalent VHH, bivalent VHH, and unrelated VHH. Success of coupling of VHH and multivalent VHH were analyzed as described in Example 4. An ELISA-like assay was performed using high bind half area microplates (Greiner Bio-One) coated with 5 μg/well potato lectin. Control wells included blank wells or wells coated with unrelated antigens. Plates were washed three times with PBS with 0.05%-TWEEN®-20 and blocked with 5% skimmed milk in PBS for 1 to 2 hours. VHH-coupled Uvitex-containing microcapsules were diluted to appropriate densities in 1% skimmed milk in PBS with 0.05%-TWEEN®-20. Five-fold serial dilution series were prepared and allowed to bind to the surface to compare binding of microcapsules coupled with monovalent or bivalent VHH. Microcapsules were added to the antigen-coated or control wells and allowed to bind for 1 hour. Unbound microcapsules were removed by washing five times with PBS with 0.05%-TWEEN®-20. The bottoms of ELISA plate wells were analyzed for bound microcapsules on a macrozoom microscope system (Nikon). Microcapsules were counted using Volocity image analysis software (Perkin Elmer). A DAPI filter was used to visualize Uvitex microcapsules. […] The surface area of microcapsules with coupled bivalent VHH was 15-fold above the surface area of blank microcapsules applied at this microcapsule density while the surface area of microcapsules with monovalent VHH was only six-fold above the surface area of blank microcapsules applied at this microcapsule density. This difference could be explained by an increase in binding strength due to additional avidity of the bivalent VHH compared to monovalent VHH, it could also be that the use of bivalent VHH increases flexibility and spacer length of the coupled targeting agents on microcapsules, or a combination of both.
Molecule,"absorbance at 405 nm (gum arabic; Table 2, gum arabic coating, VHH 3 μg/ml)","absorbance at 405 nm (gum arabic; [VHH] 3 μg/ml (200 nM), gum arabic − (well without gum arabic))",binding to native grass leaf surface (fluorescence microscopy) (surface of grass leaves),binding to native grass leaf surface (fluorescence microscopy) (surface of grass leaves; listed as 3E6),binding to native potato leaf surface (fluorescence microscopy) [1],binding to native potato leaf surface (fluorescence microscopy) ([1]; listed as 3E6),"Surface area of bound microcapsules ([2]; no coating (second series, with unrelated antigen rows), surface coverage 100%)","Surface area of bound microcapsules ([2]; unrelated antigen, surface coverage 4%)","Surface area of bound microcapsules ([2]; unrelated antigen, surface coverage 20%)","Surface area of bound microcapsules ([2]; unrelated antigen, surface coverage 100%)"
"VHH 3E6: VHH binding gum arabic, potato lectin and leaf surface; SEQ ID NO:7 by order of the list (protein, listed as Lama glama, 3E6) VHH: QVQLQESGGGLVQPGGTLSLSCAASGFNVRWYGMGWFRQAPGKEREGVACISALQETTAYADSVKGRFTLSRDNPKNTLSLQMNNLQPEDTGVYYCATTDCDDSSRMTYTSYLGQGTQVTVSS",0.882,0.090,binding to leaf surface and wounded plant tissue,bind specifically,"binding leaf surface, stomata, glandular trichomes, and leaf hairs","clearly binding to trichomes, stomata and cuticle",–,–,–,–
"Microcapsules containing uvitex OB VHH 3E6: polyurea microcapsules containing the fluorescent tracer Uvitex OB, coupled with (monovalent) VHH 3E6 (conjugate, left off: small tags and cut ends, polyurea microcapsules containing the fluorescent tracer Uvitex OB, coupled with (monovalent) VHH 3E6) VHH: QVQLQESGGGLVQPGGTLSLSCAASGFNVRWYGMGWFRQAPGKEREGVACISALQETTAYADSVKGRFTLSRDNPKNTLSLQMNNLQPEDTGVYYCATTDCDDSSRMTYTSYLGQGTQVTVSS",–,–,–,–,–,–,72.036,5.011,27.742,69.503
